Test [1] concerns the target T1, mouse IL-11Rα (Il11ra1) (mouse, UniProt Q64385 24-372, limits assumed).
T1 construct: also called mouse Il11ra1
T1 sequence (looked up): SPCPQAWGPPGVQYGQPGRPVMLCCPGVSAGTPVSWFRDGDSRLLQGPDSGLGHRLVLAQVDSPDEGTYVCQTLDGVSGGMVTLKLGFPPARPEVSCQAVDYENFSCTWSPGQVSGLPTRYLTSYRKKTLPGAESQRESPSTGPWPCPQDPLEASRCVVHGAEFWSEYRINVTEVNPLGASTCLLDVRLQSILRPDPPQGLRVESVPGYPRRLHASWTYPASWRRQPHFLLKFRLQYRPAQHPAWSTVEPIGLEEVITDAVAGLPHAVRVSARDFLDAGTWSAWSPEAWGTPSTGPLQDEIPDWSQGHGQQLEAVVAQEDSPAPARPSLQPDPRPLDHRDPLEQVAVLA
The experiment in a line: BLI, Octet (ForteBio). (Biolayer interferometry detects binding as a change in optical thickness at a sensor tip.)

In test [2] the target is T2, human IL11RA (analyte in the Biacore assay) (human, UniProt Q14626 23-370, limits assumed).
T2 construct: also called IL-11Rα
T2 sequence: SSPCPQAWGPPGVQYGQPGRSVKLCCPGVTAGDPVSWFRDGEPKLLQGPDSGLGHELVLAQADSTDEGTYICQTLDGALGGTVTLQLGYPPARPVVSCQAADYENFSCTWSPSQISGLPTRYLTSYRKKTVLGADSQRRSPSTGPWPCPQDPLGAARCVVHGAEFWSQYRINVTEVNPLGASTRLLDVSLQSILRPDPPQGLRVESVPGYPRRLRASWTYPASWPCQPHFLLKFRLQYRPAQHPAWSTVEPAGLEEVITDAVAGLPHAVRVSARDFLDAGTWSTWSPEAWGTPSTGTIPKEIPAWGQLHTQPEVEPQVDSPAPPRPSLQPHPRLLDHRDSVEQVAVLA
Description: SPR (Biacore T200): X209 captured on an anti-mouse capture chip, human IL11RA injected as analyte at 1.56 nM to 100 nM, 1:1 Langmuir fit. Here is the method: (§1) Binding of X209 to human IL11RA was measured on Biacore T200 (GE Healthcare). X209 was immobilized onto an anti-mouse capture chip. Interaction assays were performed with HEPES-buffered saline pH 7.4 containing 0.005% P20 and 0.5% BSA. A concentration range (1.56 nM to 100 nM) of the analyte (human IL11 RA) was injected over X209 and reference surfaces at a flow rate of 40 μl min⁻¹. Binding to mouse 1111ra1 was confirmed on Octet system (ForteBio) using a similar strategy. All sensograms were aligned and double-referenced⁴. Affinity and kinetic constants were determined by fitting the corrected sensorgrams with 1:1 Langmuir model. The equilibrium binding constant KD was determined by the ratio of kd/kₐ.

For test [3], the target named is T2, human IL11RA (analyte in the Biacore …). The experiment in a line: SPR, Biacore T200; X209 captured on an anti-mouse chip, human IL11RA as analyte (1.56 nM to 100 nM), 1:1 Langmuir fit. On the procedure: as §1

B1: mouse anti-mouse IL-11Rα IgG X209 (antibody, V domains shown)
VH: QVQLQQPGAELVRPGSSVKLSCKASGYTFTNYWMHWLKQRPVQGLEWIGNIGPSDSKTHYNQKFKDKATLTVDKSSSTAYMQLNSLTSEDSAVYYCARGDYVLFTYWGQGTLVTVSA
VL: DIVLTQSPATLSLSPGERATLSCRASQSISNNLHWYQQKSHEAPRLLIKYASQSISGIPARFSGSGSGTDFTLSFSSLETEDFAVYFCQQSYSWPLTFGQGTKLEIK
notes: also called Enx209; neutralizing anti-IL11RA
As usually defined, the Kd is the concentration at which binding is half-saturated. A low value points to a tighter complex. A word on the koff: it is a measure of how fast the partners let go of each other. Higher therefore signals fast dissociation. The term kon denotes a measure of how fast the partners come together. B1: the binding result in test [1] was “binds”. In test [2], this molecule had a Kd of 6.01 nM, a koff of 0.000757 s⁻¹ and a kon of 126000 M⁻¹ s⁻¹. Also, binding in test [3] was characterised by a dissociation constant (Kd) of 6 nM.

Source of the values: patent publication US20200384083A1 (SINGAPORE HEALTH SERVICES PTE, published 2020).
